Here are results for 2 substances from patent publication US20210221917A1.

Test [1] concerns the target FcyRIIb (UniProt P31994). Kind of test: cell-based competitive TR-FRET assay (CisBio Bioassays); reference: Construct 5 (SIF3).
The next test concerns the target FcyRIIIa (UniProt P08637). The test is described as follows: cell-based competitive TR-FRET. On the technique in general: TR-FRET usually uses a lanthanide donor and a delayed reading to cut background.
The target of the next test is FcyRIIa (UniProt P12318). The test is described as follows: cell-based competitive TR-FRET.
The target of test [2] is FcyRIIb (UniProt P31994). The test is described as follows: cell-based competitive TR-FRET.
For another test, the target named is FcγRIIIa (UniProt P08637). Kind of test: cell-based competitive TR-FRET.
A further test addresses FcγRIIa (UniProt P12318). The test is described as follows: cell-based competitive TR-FRET.
In a further test the target is FcγRIIb (UniProt P31994). The test is described as follows: cell-based competitive TR-FRET.

What is called EC50 is the concentration needed to bring the measured effect to its halfway point. Read a low EC50 as higher potency in that assay. For the substance “Construct 5-FcyRIIb+ mutant (Construct 5 backbone with S267E/L328F) (from UniProt P01857 27-328; P0DOX5 223-449)”, the fold increase in binding compared to Construct 5 (SIF3) with FcyRIIb [1] was above 300 fold. The EC50 in the test with FcyRIIIa turned out to be 26.7 nM; with FcyRIIa it was 0.126 nM; with FcyRIIb [2] it was 0.0165 nM.

As for IgG1, the concentration giving a half-maximal response (EC50) came out at 96.2 nM with FcγRIIIa, 502 nM in the test with FcγRIIa and 1690 nM with FcγRIIb.
